For assay [1], the target named is soluble mouse FcRn, GST-tagged (mFcRn heavy chain ectodomains with human β2-microglobulin) (mouse | human) (UniProt Q61559). As to the kind of experiment: SPR. (In general: Surface plasmon resonance follows binding to a sensor surface in real time, without labels.)
The target in assay [2] is soluble human FcRn, GST-tagged (hFcRn heavy chain ectodomains with human β2-microglobulin) (human) (UniProt P55899). Kind of assay: SPR.
Chain of UniProt P55899 (P55899 24-297, chain 1 of 2): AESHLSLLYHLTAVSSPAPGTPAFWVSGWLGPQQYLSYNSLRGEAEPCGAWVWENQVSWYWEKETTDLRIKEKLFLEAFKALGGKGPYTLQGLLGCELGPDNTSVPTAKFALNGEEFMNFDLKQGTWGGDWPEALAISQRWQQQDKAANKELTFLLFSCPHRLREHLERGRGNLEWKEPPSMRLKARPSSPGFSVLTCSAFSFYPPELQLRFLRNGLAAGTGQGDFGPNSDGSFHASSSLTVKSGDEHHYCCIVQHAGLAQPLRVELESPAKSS
Chain of UniProt P55899 (P61769 21-119, chain 2 of 2, further chain): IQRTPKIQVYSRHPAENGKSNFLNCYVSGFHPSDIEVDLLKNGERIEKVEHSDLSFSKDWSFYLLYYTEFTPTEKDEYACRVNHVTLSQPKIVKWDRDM

Chain of UniProt Q61559 (Q61559 22-297, chain 1 of 2): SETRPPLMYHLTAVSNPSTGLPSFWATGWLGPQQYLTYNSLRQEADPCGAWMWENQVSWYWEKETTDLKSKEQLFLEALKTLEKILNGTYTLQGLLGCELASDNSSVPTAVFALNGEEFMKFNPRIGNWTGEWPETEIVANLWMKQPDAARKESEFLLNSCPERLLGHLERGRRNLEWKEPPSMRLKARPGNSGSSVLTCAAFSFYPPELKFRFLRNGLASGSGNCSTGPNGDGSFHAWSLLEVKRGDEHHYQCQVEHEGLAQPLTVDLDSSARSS
Chain of UniProt Q61559 (P61769 21-119, chain 2 of 2, further chain): as the sequence (P61769 21-119, chain 2 of 2, further chain) above

In assay [1], “anti-CEA cT84.66 scFv-Fc H435Q (Fc fusion)” yielded a KD1 (heterogeneous ligand model) of 80.9 nM and a KD2 (heterogeneous ligand model) of 400 nM.

Turning to “anti-CEA cT84.66 scFv-Fc H435R (Fc fusion)”, in assay [2], the KD1 (heterogeneous ligand model) was 9.4 nM and the KD2 (heterogeneous ligand model) was 197 nM. In assay [1], this substance yielded a KD1 (heterogeneous ligand model) of 1.8 nM and a KD2 (heterogeneous ligand model) of 122 nM.

For the substance “anti-CEA cT84.66 scFv-Fc WT (nonmutated) (Fc fusion)”, the KD2 (heterogeneous ligand model) in assay [1] is 43.8 nM.

Source of the values: article PMC3391105.
